Series [1] deals with T1, iC3b (Homo sapiens, UniProt P01024;P01024;P01024 23-667;749-1303;1321-1663). Kind of series: filter binding.
Series [2] deals with C3b (Homo sapiens, UniProt P01024;P01024 23-667;749-1663). The series is described as follows: filter binding.
The target in series [3] is T1, iC3b. The series is described as follows: EMSA.

T1 sequence (P01024 23-667, chain 1 of 3): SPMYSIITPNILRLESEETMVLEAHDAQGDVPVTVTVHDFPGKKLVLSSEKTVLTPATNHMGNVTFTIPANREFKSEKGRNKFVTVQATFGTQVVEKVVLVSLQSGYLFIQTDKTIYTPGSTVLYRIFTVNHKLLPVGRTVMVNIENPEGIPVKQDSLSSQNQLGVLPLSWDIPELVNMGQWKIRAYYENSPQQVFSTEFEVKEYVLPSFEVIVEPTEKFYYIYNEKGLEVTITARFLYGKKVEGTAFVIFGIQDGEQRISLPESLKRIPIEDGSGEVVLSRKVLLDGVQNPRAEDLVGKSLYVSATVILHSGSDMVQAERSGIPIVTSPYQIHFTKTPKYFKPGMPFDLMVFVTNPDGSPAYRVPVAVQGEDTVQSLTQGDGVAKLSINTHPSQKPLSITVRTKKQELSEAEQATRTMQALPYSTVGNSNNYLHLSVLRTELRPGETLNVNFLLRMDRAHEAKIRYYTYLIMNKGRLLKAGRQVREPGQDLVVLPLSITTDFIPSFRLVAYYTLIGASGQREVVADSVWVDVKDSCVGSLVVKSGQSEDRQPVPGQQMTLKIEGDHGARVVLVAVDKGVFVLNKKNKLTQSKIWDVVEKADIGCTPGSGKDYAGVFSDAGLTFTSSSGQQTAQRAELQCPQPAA
T1 sequence (P01024 749-1303, chain 2 of 3): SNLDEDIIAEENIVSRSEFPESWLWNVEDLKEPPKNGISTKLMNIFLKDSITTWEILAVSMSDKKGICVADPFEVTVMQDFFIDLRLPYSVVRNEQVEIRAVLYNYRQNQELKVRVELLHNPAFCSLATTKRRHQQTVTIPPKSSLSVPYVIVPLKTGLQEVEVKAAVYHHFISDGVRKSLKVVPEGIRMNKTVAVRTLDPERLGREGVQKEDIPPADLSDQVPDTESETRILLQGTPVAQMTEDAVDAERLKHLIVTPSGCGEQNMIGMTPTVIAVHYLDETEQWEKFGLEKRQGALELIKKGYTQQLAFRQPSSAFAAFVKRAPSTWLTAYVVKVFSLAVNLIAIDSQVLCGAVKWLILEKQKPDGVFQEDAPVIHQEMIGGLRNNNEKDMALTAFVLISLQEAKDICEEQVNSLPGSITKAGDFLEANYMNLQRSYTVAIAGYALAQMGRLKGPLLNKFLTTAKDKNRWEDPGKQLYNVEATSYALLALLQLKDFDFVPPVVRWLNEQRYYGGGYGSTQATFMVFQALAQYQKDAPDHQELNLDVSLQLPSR
T1 sequence (P01024 1321-1663, chain 3 of 3): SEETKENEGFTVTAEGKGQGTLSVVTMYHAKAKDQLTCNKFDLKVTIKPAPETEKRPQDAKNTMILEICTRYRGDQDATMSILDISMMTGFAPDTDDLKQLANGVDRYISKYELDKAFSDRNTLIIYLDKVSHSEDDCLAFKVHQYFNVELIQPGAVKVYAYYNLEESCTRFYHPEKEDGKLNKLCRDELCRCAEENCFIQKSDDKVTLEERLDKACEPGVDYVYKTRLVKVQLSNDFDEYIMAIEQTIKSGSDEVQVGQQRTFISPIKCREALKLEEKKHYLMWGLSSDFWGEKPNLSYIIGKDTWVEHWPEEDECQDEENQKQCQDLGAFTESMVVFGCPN
C3b, sequence (P01024 23-667, chain 1 of 2): as the sequence (P01024 23-667, chain 1 of 3) above
C3b, sequence (P01024 749-1663, chain 2 of 2): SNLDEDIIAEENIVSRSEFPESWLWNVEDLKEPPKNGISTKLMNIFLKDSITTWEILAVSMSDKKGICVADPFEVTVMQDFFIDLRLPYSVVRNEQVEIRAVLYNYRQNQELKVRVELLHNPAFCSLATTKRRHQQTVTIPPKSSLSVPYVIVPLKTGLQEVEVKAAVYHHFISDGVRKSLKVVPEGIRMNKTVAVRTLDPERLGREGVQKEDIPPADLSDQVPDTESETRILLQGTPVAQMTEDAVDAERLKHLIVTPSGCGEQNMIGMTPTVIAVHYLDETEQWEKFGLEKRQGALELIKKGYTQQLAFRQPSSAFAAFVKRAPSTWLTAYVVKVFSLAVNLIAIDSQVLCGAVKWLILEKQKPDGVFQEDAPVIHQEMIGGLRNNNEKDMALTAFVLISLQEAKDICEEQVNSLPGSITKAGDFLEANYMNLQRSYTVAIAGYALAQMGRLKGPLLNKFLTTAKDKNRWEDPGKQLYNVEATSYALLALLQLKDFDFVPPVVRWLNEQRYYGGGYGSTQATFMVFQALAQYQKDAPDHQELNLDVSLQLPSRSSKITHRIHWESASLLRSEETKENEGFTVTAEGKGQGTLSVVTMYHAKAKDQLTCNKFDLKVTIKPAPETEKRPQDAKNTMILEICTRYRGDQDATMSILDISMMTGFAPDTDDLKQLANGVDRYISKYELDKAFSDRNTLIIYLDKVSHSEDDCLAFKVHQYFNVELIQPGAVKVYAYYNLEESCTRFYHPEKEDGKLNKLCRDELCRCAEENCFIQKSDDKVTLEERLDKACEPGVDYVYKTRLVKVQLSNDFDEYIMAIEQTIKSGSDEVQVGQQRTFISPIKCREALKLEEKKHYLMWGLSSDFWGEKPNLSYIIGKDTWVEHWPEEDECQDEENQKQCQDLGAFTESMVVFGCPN

B1: Apt[C3-GFP] (structured_RNA)
RNA: GGGAGCCUGAUGGCAGGGCGAAUUGGGUGGGGAAAGUCCUUAAAAGAGGGCCACCACAGAAGCAAUGGGCUUCUGGACUCGGUCCCGCUCGGCUAGAAGAAUAUGACGGAUUGACCGUAUCAGGGUAGCCGAGC
For B1, the binding result in series [1] and in series [2] was “binds” each time.

B2: AptC3-2 (structured_RNA)
RNA: GGGAGAAUUCAACUGCCAUCUAGGCAAAUCCGCGAGCGCCGGUACCGGUGGCGCAUGCCCACACAGCACUAAACGAGUACUACAAGCUUCUGGACUCGGU
As to B2, in series [3], the binding result is given as “no binding”.

The values are drawn from article PMC2853121.
